T1: MdWRKY70L (Malus domestica, UniProt A0A7S5EAY7 1-303)
T1 sequence: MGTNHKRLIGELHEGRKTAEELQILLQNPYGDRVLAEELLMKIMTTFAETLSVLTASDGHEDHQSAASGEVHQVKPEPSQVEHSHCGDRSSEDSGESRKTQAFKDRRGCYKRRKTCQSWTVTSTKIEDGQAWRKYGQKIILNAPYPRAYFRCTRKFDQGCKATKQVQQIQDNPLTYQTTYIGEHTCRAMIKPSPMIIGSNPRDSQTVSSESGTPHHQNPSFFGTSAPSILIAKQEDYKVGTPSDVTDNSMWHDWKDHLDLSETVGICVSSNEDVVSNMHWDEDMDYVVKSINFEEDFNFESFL


Experiments:
[1] = target: T1, MdWRKY70L; assay: EMSA; LightShift Chemiluminescent EMSA kit (Thermo); buffer, salt, pH and temperature not stated; conditions: protein: recombinant; tags: GST (Results); His (EMSA Methods, pET32a); label: 3' biotin, both strands; blunt
[2] = target: T1, MdWRKY70L; assay: competition; 25x, 50x, 100x cold probe vs hot probe N3; LightShift Chemiluminescent EMSA kit (Thermo); buffer, salt, pH and temperature not stated; conditions: protein: recombinant; tags: GST (Results); His (EMSA Methods, pET32a); blunt
[3] = target: T1, MdWRKY70L; assay: competition; 25x, 50x, 100x cold probe vs hot probe N1; LightShift Chemiluminescent EMSA kit (Thermo); buffer, salt, pH and temperature not stated; conditions: protein: recombinant; tags: GST (Results); His (EMSA Methods, pET32a); blunt

Binder	binding result [1]	further results
MdSAG101 W-box hot probe (dsDNA) DNA 1: TCTATATAAAGAGAGACATATTGACCATTCCGGTATCCTCTTCTCT DNA 2: AGAGAAGAGGATACCGGAATGGTCAATATGTCTCTCTTTATATAGA	binds	
MdSAG101 W-box cold probe (dsDNA) DNA 1: TCTATATAAAGAGAGACATATTGACCATTCCGGTATCCTCTTCTCT DNA 2: AGAGAAGAGGATACCGGAATGGTCAATATGTCTCTCTTTATATAGA		binding result [2]: binds
MdSAG101 W-box mutant probe (dsDNA) DNA 1: TCTATATAAAGAGAGACATATCGGCTATTCCGGTATCCTCTTCTCT DNA 2: AGAGAAGAGGATACCGGAATAGCCGATATGTCTCTCTTTATATAGA	no binding	
MdZAT12 W-box hot probe (dsDNA) DNA 1: CATTGATCTGGATTTCTGTGCTGACTCAGACTCATCGTGGATGCTT DNA 2: AAGCATCCACGATGAGTCTGAGTCAGCACAGAAATCCAGATCAATG	binds	
MdZAT12 W-box mutant probe (dsDNA) DNA 1: CATTGATCTGGATTTCTGTGCGGCCGCAGACTCATCGTGGATGCTT DNA 2: AAGCATCCACGATGAGTCTGCGGCCGCACAGAAATCCAGATCAATG	no binding	
MdZAT12 W-box cold probe (dsDNA) DNA 1: CATTGATCTGGATTTCTGTGCTGACTCAGACTCATCGTGGATGCTT DNA 2: AAGCATCCACGATGAGTCTGAGTCAGCACAGAAATCCAGATCAATG		binding result [3]: binds
